Results on 9 molecules are retold here after patent US20180344844A1 (SCHOLAR ROCK, published 2018).

Experiment [1] deals with T1, proGDF8 (mouse) (mouse, UniProt O08689 25-376). The experiment in a line: cell-based or functional assay.
The target of experiment [2] is T2, proGDF8 (human) (human, UniProt O14793 24-375). The experiment in a line: cell-based or functional assay.
In experiment [3] the target is T3, Mature Activin A (UniProt P08476 311-426).
T3 construct: mature; also called Activin A growth factor
T3 sequence (looked up): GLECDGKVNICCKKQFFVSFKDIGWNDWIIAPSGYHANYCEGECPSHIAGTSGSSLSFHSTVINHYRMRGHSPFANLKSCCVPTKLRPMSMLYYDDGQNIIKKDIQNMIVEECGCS
The experiment in a line: ForteBio Octet BLI; antigen on the tip (direct amine coupling), Ab1 in solution.

The target of experiment [4] is T4, Mature GDF8 (UniProt O14793 267-375, limits assumed).
T4 construct: mature; Amine-coupled to the biosensor tips; also called mature myostatin; mature growth factor of Myostatin
Described as above.

Experiment [5] deals with T5, BMP 9 (UniProt Q9UK05 320-429, limits assumed).
T5 construct: mature
T5 sequence (looked up): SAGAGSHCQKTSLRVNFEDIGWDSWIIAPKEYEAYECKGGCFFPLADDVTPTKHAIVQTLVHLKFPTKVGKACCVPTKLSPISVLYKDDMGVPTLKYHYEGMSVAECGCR
The description is as above.

Experiment [6] concerns the target T6, BMP10 (UniProt O95393 317-424, limits assumed).
T6 construct: mature
T6 sequence (looked up): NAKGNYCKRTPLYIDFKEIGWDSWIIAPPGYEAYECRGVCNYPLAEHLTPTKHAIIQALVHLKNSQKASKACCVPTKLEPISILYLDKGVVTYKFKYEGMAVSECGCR
The description is as above.

Experiment [7] concerns the target T7, Mature TGFB1 (UniProt P01137 279-390).
T7 construct: mature; also called mature TGFβ1
The experiment is described as above.

Experiment [8] deals with T8, Mature GDF11 (UniProt O95390 299-407, limits assumed).
T8 construct: mature; also called GDF11 mature growth factor
Described as above.

Experiment [9] addresses T1, proGDF8 (mouse). The experiment can be described thus: cell-based or functional assay. The source holds these as a separate data set.
Experiment [10] addresses T9, proGDF11 (human) (human, UniProt O95390 25-407).
T9 construct: domain: proGDF11 (prodomain plus growth factor domain)
The experiment can be described thus: ForteBio BLI; biotinylated proGDF11 on streptavidin tip, 30 µg/mL antibody, response after 5 minutes of association relative to proGDF8.
Description: In this assay, biotinylated proGDF11 or biotinylated proMyostatin was immobilized on a ForteBio BLI streptavidin-coated sensor tip, which was applied to wells containing 30 μg/mL of antibody. Interactions of the analyte with the protein immobilized on the chip are measured by the magnitude of the response of the biosensor chip. The biosensor response after 5 minutes of association (a saturating signal for proGDF8) was compared between the two antigens, and expressed as the percent response for GDF8 binding.

The target of experiment [11] is T10, Pro Activin A (human, UniProt P08476 21-426).
T10 construct: domain: pro form (prodomain plus growth factor domain)
T10 sequence (looked up): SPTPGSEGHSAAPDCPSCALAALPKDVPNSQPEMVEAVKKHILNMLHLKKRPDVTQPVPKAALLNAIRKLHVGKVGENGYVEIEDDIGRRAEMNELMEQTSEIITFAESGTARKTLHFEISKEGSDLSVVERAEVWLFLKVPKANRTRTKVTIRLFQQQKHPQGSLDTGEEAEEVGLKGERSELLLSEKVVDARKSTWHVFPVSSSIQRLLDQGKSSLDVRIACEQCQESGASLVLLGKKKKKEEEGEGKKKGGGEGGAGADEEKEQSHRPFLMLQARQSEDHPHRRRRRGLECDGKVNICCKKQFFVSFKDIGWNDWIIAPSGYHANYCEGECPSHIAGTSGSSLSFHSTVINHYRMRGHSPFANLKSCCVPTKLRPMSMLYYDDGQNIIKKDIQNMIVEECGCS
The experiment in a line: ForteBio Octet BLI; biotinylated antigen on streptavidin tip, Ab1 in solution.

Experiment [12] concerns the target T9, proGDF11 (human). The description is as above.
Experiment [13] deals with T10, Pro Activin A. The experiment in a line: ForteBio Octet BLI; antigen on biosensor, antibody in solution.
Description: (§1) Binding affinities of antibody candidates were determined using the FortéBio Octet QKe dip and read label free assay system utilizing bio-layer interferometry. Antigens were immobilized to biosensors (streptavidin-coated biosensors for proGDF8, proGDF11 and proActivin; direct amine coupling for all others) in each experiment and the antibodies/constructs were presented in solution at high concentration (50 μg/mL) to measure binding interactions.
(§2) Binding affinities of antibodies were determined using the FortéBio Octet QKe dip and read label free assay system utilizing bio-layer interferometry. Human proGDF8, latent GDF8, proGDF11 and proActivin were biotinylated and immobilized to streptavidin-coated biosensors (FortéBio). Mature growth factors were immobilized via direct amine coupling to amine reactive tips according to manufacturer's instructions (FortéBio). In each experiment, the antibodies/constructs were presented in solution at a single high concentration (50 μg/mL) to measure binding interactions.
Experiment [14] addresses T3, Mature Activin A. The description is as above.
Description: as §1, §2
Experiment [15] has as its target T4, Mature GDF8. The description is as above.
Description: as §1, §2
Experiment [16] addresses T5, BMP 9. The experiment is described as above.
Description: as §1, §2
Experiment [17] concerns the target T6, BMP10. Described as above.
Description: as §1, §2
Experiment [18] addresses T7, Mature TGFB1. Described as above.
Description: as §1, §2
The target of experiment [19] is T8, Mature GDF11. The description is as above.
Description: as §1, §2
The target in experiment [20] is T1, proGDF8 (mouse). The experiment in a line: cell-based or functional assay. The source holds these as a separate data set.
The target in another experiment is T11, latent GDF8 (human) (human, UniProt O14793 24-266; O14793 267-375).
T11 construct: proGDF8 cleaved by a proprotein convertase; the split after 243 is inferred from that; also called human latent Myostatin; Human latent GDF8
The experiment in a line: Octet binding kinetics to pro- and latent-Myostatin, compared with parental Ab1.

The target in experiment [21] is T2, proGDF8 (human). The experiment is described as above.

Read-outs that look alike come from different tables or passages of the source.

B1: Ab8 (antibody, V domains shown)
VH: QIQLVQSGAEVKKPGASVKVSCKASGYTFTSYGISWVRQAPGQGLEWMGWISAYNGNTNYAQKLQGRVTMTTDTSTSTAYMELSSLRSEDTAVYYCARVGFYDYVWGSYPYDAFDIWGQGTMVTVSS
VL: EIVMTQSPGTLSLSPGERATLSCRASQSVSSNYLAWYQQKPGQAPRLLIYDASNRATGIPARFSGSGSGTDFTLTISSLEPEDFALYYCQQYGTSPLTFGGGTKLEIKR
As for B1, in the experiment with proGDF8 (mouse) [1], the “Murine proGDF8 IC50 (µM) Reporter assay” value is 139 µM. For the same molecule, the “Human proGDF8 IC50 (µM) Reporter assay” value with proGDF8 (human) [2] came out at 6.04 µM.

B2: Ab9 (antibody, V domains shown)
VH: QVQLVQSGAEVKKPGSSVKVSCKASGGTFSSYAISWVRQAPGQGLEWMGGIIPIFGTANYAQKFQGRVTITADESTSTAYMELSSLRSEDTAVYYCANHGLMDDSSGYYLSNAFDIWGQGTMVTVSS
VL: not shown
As to B2, the “Murine proGDF8 IC50 (µM) Reporter assay” value in the experiment with proGDF8 (mouse) [1] was 19.9 µM. In the experiment with proGDF8 (human) [2], the “Human proGDF8 IC50 (µM) Reporter assay” value turned out to be 12.2 µM.

B3: Ab10 (antibody, V domains shown)
VH: EVQLVQSGGGVVQSGRSLRLSCVASGFSFSNYGMHWVRQAPGKGLEWLAFIWYDGSNKWYADSVKGRFTISRDNSKNALYLQMNSLRAEDTAVYYCARDRYSSSWGGGFDYWGQGTVLTVSS
VL: NFMLTQPHSVSESPGRTVTIPCSGRGGSIASDSVQWYQQRPGSAPTTIIYEDNQRPSGVPDRFSGSVDSSSNSASLTISGLRTEDEADYYCQSYDASSLWVFGGKTKLTVLG
As to B3, the “Human proGDF8 IC50 (µM) Reporter assay” value with proGDF8 (human) [2] was determined as 0.772 µM.

B4: Ab7 (antibody, V domains shown)
VH: QVQLQQSGAEVKKPGASVKVSCKASGYTFTSYYMHWVRQAPGQGLEWMGIINPSGGSTSYAQKFQGRVTMTRDTSTSTVYMELSSLRSEDTAVYYCARESLIRFLEDPQQGGMDVWGQGTTVTVSS
VL: QSALTQPASVSGSPGQSLTISCTGTSSDIGGYNYVSWYQQHPGKAPKLIIYDVTDRPSGVSGRFSGSKSGNTASLTISGLQTEDEAEYFCNSWTRSNNYIFGGGTKLTVLG
Turning to B4, the “Murine proGDF8 IC50 (µM) Reporter assay” value in the experiment with proGDF8 (mouse) [1] is 1.68 µM. Also, the “Human proGDF8 IC50 (µM) Reporter assay” value with proGDF8 (human) [2] came to 0.983 µM.

B5: Ab1 parental antibody, IgG4 (S228P), lambda (antibody, V domains shown)
VH: QIQLVQSGGGVVQPGRSLRLSCAASGFTFSSYGMHWVRQAPGKGLEWVAVISYDGSNKYYADSVKGRFTISRDNSKNTLYLQMNSLRAEDTAVYYCARDLLVRFLEWSHYYGMDVWGQGTTVTVSS
VL: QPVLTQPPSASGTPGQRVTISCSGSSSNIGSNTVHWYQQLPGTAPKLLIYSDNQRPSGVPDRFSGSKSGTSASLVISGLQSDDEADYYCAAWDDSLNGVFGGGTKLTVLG
notes: also called parental Ab1 IgG4; 24H4 (WT); copies: 2 + 2
B5: the binding result with Mature Activin A [3], with Mature GDF8 [4], in the experiment with BMP 9 [5], with BMP10 [6], with Mature TGFB1 [7] and in the experiment with Mature GDF11 [8] was “no binding (tested: 50 ug/mL)” throughout. In addition, the binding result with Pro Activin A [11] and with proGDF11 (human) [12] was “no binding (tested: 50 ug/mL)” each time. Also, the “Activity Assay - 293T cells EC50” value in the experiment with proGDF8 (mouse) [9] was 839 nM. For the same molecule, the “GDF11 response, expressed as a percentage of GDF8 response” value in the experiment with proGDF11 (human) [10] was determined as 1.33%.

B6: Ab4 (Ab3 with germline framework residues), IgG4 (S228P), lambda (antibody, V domains shown)
VH: QVQLVESGGGVVQPGRSLRLSCAASGFAFSSYGMHWVRQAPGKGLEWVAVISYDGSIKYYADSVKGRFTISRDNSKNTLYLQMNSLRAEDTAVYYCARDLLVRFLEWSHKYGMDVWGQGTTVTVSS
VL: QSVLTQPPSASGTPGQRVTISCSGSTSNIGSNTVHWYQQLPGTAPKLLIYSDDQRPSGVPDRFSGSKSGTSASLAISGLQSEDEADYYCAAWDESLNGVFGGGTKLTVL
notes: human IgG4/lambda framework with S228P; also called Ab4 germline
For the molecule B6, the binding result with Pro Activin A [13], with Mature Activin A [14], with Mature GDF8 [15], with BMP 9 [16], with BMP10 [17] and with Mature TGFB1 [18] was “no binding (tested: 50 µg/mL)” throughout. Moreover, the binding result in the experiment with Mature GDF11 [19] is on record as “no binding (tested: 50 µg/mL)”. In the experiment with proGDF11 (human) [10], the “GDF11 response, expressed as a percentage of GDF8 response” value was found to be 2.51%. Moreover, the “Activity Assay - 293T cells EC50” value with proGDF8 (mouse) [20] came to 447 nM.

B7: Ab3 (affinity optimized variant of Ab1, parental frameworks) (antibody, IgG4, V domains shown)
VH: QIQLVQSGGGVVQPGRSLRLSCAASGFAFSSYGMHWVRQAPGKGLEWVAVISYDGSIKYYADSVKGRFTISRDNSKNTLYLQMNSLRAEDTAVYYCARDLLVRFLEWSHKYGMDVWGQGTTVTVSS
VL: QPVLTQPPSASGTPGQRVTISCSGSTSNIGSNTVHWYQQLPGTAPKLLIYSDDQRPSGVPDRFSGSKSGTSASLVISGLQSDDEADYYCAAWDESLNGVFGGGTKLTVLG
notes: also called Ab3 parental; copies: 2 + 2
Consider B7, for which the binding result with latent GDF8 (human) and with proGDF8 (human) [21] was “binds” each time.

B8: Ab6 (Ab5 with germline framework residues), IgG4 (S228P), lambda (antibody, V domains shown)
VH: QVQLVESGGGVVQPGRSLRLSCAASGFAFSSYGMHWVRQAPGKGLEWVAVISYDGNNKYYADSVKGRFTISRDNSKNTLYLQMNSLRAEDTAVYYCARDLLVRFLEWSHKYGMDVWGQGTTVTVSS
VL: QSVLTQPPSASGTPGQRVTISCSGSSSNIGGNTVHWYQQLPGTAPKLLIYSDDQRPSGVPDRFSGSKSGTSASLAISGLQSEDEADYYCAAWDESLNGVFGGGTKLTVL
notes: human IgG4/lambda framework with S228P; also called Ab6 germline
For the molecule B8, the binding result with Pro Activin A [13], with Mature Activin A [14], with Mature GDF8 [15], with BMP 9 [16], with BMP10 [17] and with Mature TGFB1 [18] was “no binding (tested: 50 µg/mL)” in each case. In addition, in the experiment with Mature GDF11 [19], the binding result is given as “no binding (tested: 50 µg/mL)”. Also, the “GDF11 response, expressed as a percentage of GDF8 response” value with proGDF11 (human) [10] came to 2.07%.

B9: Ab5 (affinity optimized variant of Ab1, parental frameworks) (antibody, IgG4, V domains shown)
VH: QIQLVQSGGGVVQPGRSLRLSCAASGFAFSSYGMHWVRQAPGKGLEWVAVISYDGNNKYYADSVKGRFTISRDNSKNTLYLQMNSLRAEDTAVYYCARDLLVRFLEWSHKYGMDVWGQGTTVTVSS
VL: QPVLTQPPSASGTPGQRVTISCSGSSSNIGGNTVHWYQQLPGTAPKLLIYSDDQRPSGVPDRFSGSKSGTSASLVISGLQSDDEADYYCAAWDESLNGVFGGGTKLTVLG
notes: also called Ab5 parental; copies: 2 + 2
With B9, the binding result with latent GDF8 (human) and with proGDF8 (human) [21] was “binds” throughout.
